Experimental findings from IntAct's records for PubMed 29051512 are described below.

B1: CMRF35-like molecule 7 (Homo sapiens), A8K4G0 (parent)
chain: MWLPPALLLLSLSGCFSIQGPESVRAPEQGSLTVQCHYKQGWETYIKWWCRGVRWDTCKILIETRGSEQGEKSDRVSIKDNQKDRTFTVTMEGLRRDDADVYWCGIERRGPDLGTQVKVIVDPEGAASTTASSPTNSNMAVFIGSHKRNHYMLLVFVKVPILLILVTAILWLKGSQRVPEEPGEQPIYMNFSEPLTKDMAT
partner: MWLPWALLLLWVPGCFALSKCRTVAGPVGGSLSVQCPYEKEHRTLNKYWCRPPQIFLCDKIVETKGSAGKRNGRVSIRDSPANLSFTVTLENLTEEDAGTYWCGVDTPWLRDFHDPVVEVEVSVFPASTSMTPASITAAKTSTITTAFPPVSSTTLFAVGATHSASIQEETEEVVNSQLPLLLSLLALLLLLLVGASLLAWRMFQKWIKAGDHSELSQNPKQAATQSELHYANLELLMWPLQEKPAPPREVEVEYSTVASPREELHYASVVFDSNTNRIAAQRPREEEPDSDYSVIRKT
B2: CMRF35-like molecule 7 (Homo sapiens), A8K4G0 (parent)
chain: B1 chain
partner: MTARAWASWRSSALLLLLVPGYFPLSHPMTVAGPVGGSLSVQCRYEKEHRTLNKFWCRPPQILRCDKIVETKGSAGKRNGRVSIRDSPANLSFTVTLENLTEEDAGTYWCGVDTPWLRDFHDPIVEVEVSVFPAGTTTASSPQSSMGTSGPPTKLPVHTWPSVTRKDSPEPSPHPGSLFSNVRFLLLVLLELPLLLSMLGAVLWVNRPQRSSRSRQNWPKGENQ
B3: CMRF35-like molecule 7 (Homo sapiens), A8K4G0 (parent)
chain: B1 chain
partner: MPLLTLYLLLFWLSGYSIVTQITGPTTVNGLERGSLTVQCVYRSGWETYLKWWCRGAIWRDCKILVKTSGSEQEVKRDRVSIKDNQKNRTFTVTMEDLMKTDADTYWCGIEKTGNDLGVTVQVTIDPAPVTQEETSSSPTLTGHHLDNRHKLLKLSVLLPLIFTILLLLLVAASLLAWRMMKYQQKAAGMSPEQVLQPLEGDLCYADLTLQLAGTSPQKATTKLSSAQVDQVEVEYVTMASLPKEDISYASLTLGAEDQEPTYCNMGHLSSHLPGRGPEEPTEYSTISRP
B4: CMRF35-like molecule 7 (Homo sapiens), A8K4G0 (parent)
chain: B1 chain
partner: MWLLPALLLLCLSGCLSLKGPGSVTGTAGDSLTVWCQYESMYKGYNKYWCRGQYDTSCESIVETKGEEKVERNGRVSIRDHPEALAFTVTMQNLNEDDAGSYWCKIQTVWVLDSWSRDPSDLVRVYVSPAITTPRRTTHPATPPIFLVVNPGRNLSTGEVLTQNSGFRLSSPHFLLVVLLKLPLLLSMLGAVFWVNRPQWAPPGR
B5: CMRF35-like molecule 7 (Homo sapiens), A8K4G0 (parent)
chain: B1 chain
partner: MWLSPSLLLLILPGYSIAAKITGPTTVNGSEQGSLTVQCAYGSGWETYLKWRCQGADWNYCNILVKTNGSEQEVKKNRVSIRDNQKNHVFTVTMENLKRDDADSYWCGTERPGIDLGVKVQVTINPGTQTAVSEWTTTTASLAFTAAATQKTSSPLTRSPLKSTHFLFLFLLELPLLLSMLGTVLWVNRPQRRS

Variants of B1 are the subject of the first assay. The settings on record: with clm8_human CD300A.
Consider E28A;Q29G, for which the “effect of a mutation on the interaction” value is “decreasing interaction strength”.

In a further assay the parent is B2. The note with it: with clm6_human CD300C.
For R95G;D97G, the “effect of a mutation on the interaction” value was “with no effect”. The same measure, in the same setting: the value for E28A;Q29G was “decreasing interaction strength”.

The variants in a further assay derive from B3. The settings on record: with clm1_human CD300LF.
As to E28A;Q29G, the “effect of a mutation on the interaction” value is listed as “decreasing interaction strength”.

In another assay the parent is B4. The note with it: with clm2_human CD300E.
Take E28A;Q29G: the “effect of a mutation on the interaction” value is reported as “decreasing interaction strength”.

Another assay covers variants of B5. The note with it: with clm5_human CD300LD.
With E28A;Q29G, the “effect of a mutation on the interaction” value is on record as “decreasing interaction strength”.
